Results as given in patent publication US20140348805A1.

Target: HLA-A2 (HLA-A*0201) presenting tyrosinase369-377 peptide … on cells (human)
Assay: cell-based or functional assay

| IFN-γ secretion after co-culture with Mel-93.04A12 (HLA-A2+tyrosinase+) [pg/mL] | peptide concentration needed for 50% relative lysis (half-maximum lysis), 51Cr-release assay, peptide-pulsed T2 cells [pM] | specific lysis of melanoma cells, 51Cr-release assay [%] | amount of peptide presented by T2 cells to cause release of 2000 pg/ml interferon-gamma, fold lower than TCR-D115 [fold] | maximum level of interferon-gamma in 24 hours (T2 cells pulsed with YMD peptide) [pg/mL] | peptide amount at first detection of cytokine secretion, fold less than TCR-D115 (PBMC pulsed with YMD peptide) [fold] | peptide concentration for 50% of maximal interferon-gamma release, fold lower than TCR-D115 (T2 cells pulsed with YMD peptide) [fold] | Substance |
| --- | --- | --- | --- | --- | --- | --- | --- |
| 1230 | 600 | 76 |  |  |  |  | TCR of T cell clone T58 (TCR-T58), human constant regions (from UniProt P01848 1-140) |
|  |  |  | 15000 | 5000 | 1000 | 100 | TCR-T58 with murine constant regions (TCRbeta-P2A-TCRalpha, codon-optimized) (from UniProt P01849 1-136) |
